The target of test [1] is human CLDN6, endogenously expressed on cancer cell lines (human) (UniProt P56747). The experiment in a line: FACS, OVCA429 cells, secondary antibody alone (negative control, background; column 1.5 ug). Background: In flow cytometry, cells or beads pass a laser one at a time.
Test [2] shares this target. The experiment in a line: FACS, ARK2 cells, secondary antibody alone (negative control, background; column 0.3 ug).
For test [3] the target is unchanged. The experiment in a line: FACS on OVCA429 cells, sample 1: no 1o, 2nd antibody NBP1-51902, 2o wash 2x.
Test [4] has the same target. The experiment in a line: FACS on ARK2 cells, secondary antibody only; number from the data table under the bars.
For test [5] the target is unchanged. The experiment in a line: flow cytometry on UMUC4 cells (Positive Cell Line), secondary antibody alone; the same number stands under the 0.1µg and the 1µg head.
The target in test [6] is human CLDN6 fused to GFP, expressed on engineered HEK293T cells (human) (UniProt P56747). The experiment in a line: FACS on 293T CLDN6 mGFP Clone A11 cells, secondary antibody only; number from the data table under the bars.
Test [7] shares this target. The experiment in a line: flow cytometry on HEK293T CLDN6-mGFP A11 cells (Positive Artificial OE Cell Line), secondary antibody alone; the same number stands under the 0.1µg and the 1µg head.
Test [8] shares this target. The experiment in a line: FACS, 293T clone with human CLDN6, secondary antibody alone (negative control, background; column 0.3 ug Ab).
Test [9] has the same target. The experiment in a line: FACS, 293T clone with human CLDN6, secondary antibody alone (negative control, background; column 1.5 ug Ab).
The target in test [10] is T1, mouse CLDN6 fused to GFP, expressed on engineered HEK293T cells (mouse) (UniProt Q9Z262).
T1 sequence (looked up): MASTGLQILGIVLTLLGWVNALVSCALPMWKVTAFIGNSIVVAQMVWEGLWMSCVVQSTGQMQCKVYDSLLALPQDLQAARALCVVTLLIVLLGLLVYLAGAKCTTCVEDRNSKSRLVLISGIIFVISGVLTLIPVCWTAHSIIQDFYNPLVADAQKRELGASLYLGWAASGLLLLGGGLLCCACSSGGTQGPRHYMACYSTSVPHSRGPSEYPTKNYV
The experiment in a line: FACS, 293T clone with mouse CLDN6, secondary antibody alone (negative control, background).

Test [11] deals with human CLDN6, endogenously expressed on cancer cell lines (human) (UniProt P56747). The experiment in a line: FACS, ARK2 cells, secondary antibody alone (negative control, background; column 1.5 ug).

Sequence of human CLDN6, endogenously expressed on cancer cell lines (human) (P56747 whole entry): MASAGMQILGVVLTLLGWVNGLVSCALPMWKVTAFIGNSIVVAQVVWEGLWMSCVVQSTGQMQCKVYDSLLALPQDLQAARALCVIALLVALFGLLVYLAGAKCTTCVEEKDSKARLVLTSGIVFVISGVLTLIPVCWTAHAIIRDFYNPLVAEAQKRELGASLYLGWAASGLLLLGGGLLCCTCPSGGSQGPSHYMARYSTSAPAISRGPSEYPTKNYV

“2nd Ab only (secondary detection antibody alone, negative control)”: the FACS signal in test [1] amounted to 886; in [2], 1350; in [8] it was 768; in test [9], 768; in [10] it was 1060; in test [11] it was 1350. Besides, in test [3], the Dylight 649 Signal by C6 came to 1210. Further, the figures for the FL4H Singlets in Viable cells in [4] and in test [6] were 9130 and 9420, respectively. The flow cytometry signal in [5] worked out at 1110; in [7], 1240.
